In article PMC3148853:

Experiments:
Neto1-ΔCUB2-HA = Neto1-ΔCUB2-HA (UniProt Q8R4I7); assay: co-IP
Neto2-ΔCUB2-HA = Neto2-ΔCUB2-HA (UniProt Q8BNJ6); assay: co-IP

FLAG-GluK2 (from UniProt P42260 32-908) (receptor)
amount of GluK2 co-immunoprecipitated, percent of full length Neto1 (Neto1-ΔCUB2-HA): 39%
amount of GluK2 co-immunoprecipitated, percent of full length Neto2 (Neto2-ΔCUB2-HA): 33%
